Molecular target: GHS-R receptor
Assay: cell-based or functional assay

Chain of GHS-R receptor (Q92847 whole entry): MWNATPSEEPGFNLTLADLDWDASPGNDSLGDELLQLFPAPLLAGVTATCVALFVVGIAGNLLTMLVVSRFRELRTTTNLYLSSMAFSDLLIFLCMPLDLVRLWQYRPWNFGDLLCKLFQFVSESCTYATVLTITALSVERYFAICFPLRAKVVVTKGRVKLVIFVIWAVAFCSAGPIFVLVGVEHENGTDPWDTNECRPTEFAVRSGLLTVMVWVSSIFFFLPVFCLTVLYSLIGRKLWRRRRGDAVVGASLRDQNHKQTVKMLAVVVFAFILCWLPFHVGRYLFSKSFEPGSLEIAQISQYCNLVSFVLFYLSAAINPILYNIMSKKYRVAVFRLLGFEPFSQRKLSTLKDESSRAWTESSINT

B1: Vitamin D3-PEG-maleimide carrier-conjugated ghrelin from Example 3 (peptide)
peptide: GSSFLSPEHQKAQQRKESKKPPAKLQPRC
modifications: n-octanoyl-Ser at position 3; Vitamin D3-PEG (2 kDa)-maleimide carrier coupled to the free thiol of the added C-terminal cysteine
With B1 the “EC50, calcium flux (FLIPR) % activation in GHS-R-expressing CHO-K1 cells” value was 85 nM.
